US20230357389A1 (Innovent, published 2023)
Values belong to the binder of their own block, whether it stands above or below them.

Legend:
[1] = target: T1, human CD3 complex on T cells (human, UniProt P07766 23-207; P04234 22-171; P09693 23-182; P20963 22-164); assay: flow cytometry on Jurkat cells (human CD3 complex), PE anti-human Fc secondary antibody; the EC50 table prints no unit, nM is taken from the axis Concentration of antibody (nM)
T1 construct: whole, on cells; also called CD3 at the cellular level; Jurkat cells
T1 sequence (P07766 23-207, chain 1 of 4): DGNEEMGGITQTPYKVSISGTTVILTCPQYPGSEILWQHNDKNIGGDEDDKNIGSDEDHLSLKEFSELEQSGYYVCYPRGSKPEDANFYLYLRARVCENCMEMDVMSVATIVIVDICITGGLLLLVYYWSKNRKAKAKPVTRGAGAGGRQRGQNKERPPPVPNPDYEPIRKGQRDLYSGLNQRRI
T1 sequence (P04234 22-171, chain 2 of 4): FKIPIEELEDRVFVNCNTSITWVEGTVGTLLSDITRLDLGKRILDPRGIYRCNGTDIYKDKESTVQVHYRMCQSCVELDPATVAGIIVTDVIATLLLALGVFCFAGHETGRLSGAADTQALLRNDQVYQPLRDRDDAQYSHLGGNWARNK
T1 sequence (P09693 23-182, chain 3 of 4): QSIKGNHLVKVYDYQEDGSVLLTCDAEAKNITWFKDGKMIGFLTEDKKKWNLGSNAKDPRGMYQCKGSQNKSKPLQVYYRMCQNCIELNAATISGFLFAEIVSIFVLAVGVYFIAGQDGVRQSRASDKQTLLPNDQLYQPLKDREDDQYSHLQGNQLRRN
T1 sequence (P20963 22-164, chain 4 of 4): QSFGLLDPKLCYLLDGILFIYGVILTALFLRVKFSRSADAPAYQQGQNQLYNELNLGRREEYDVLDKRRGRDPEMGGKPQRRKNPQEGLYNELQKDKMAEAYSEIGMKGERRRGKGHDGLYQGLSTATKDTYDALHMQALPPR
Description: Jurkat cells were immortalized human T lymphocytes, which expressed human CD3 complex. The cell line was used to detect the binding of the antibody of invention and the cell.

[2] = target: T2, human CLDN18.2 on the cell surface (human, UniProt P56856-2 1-261); assay: cell-based or functional assay
[3] = target: T2, human CLDN18.2 on the cell surface; assay: flow cytometry (FACS) titration on DAN-G-hCLDN18.2 pancreatic cancer cells
[4] = target: T2, human CLDN18.2 on the cell surface; assay: flow cytometry (FACS) titration on CHO-hCLDN18.2 cells, PE anti-human Fc secondary antibody; the EC50 table prints no unit, nM is taken from the axis Log[Conc.(nM)]
Protocol: (§1) Specifically, the cells to be tested (CHO-hCLDN18.2 and CHO-hCLDN18.1) obtained in Example 1 were counted and diluted to 1×10⁶ cells/ml, added to the U-shaped bottom 96-well plate at 100 μl/well, and then centrifuged at 500 g for 5 min before the cell culture medium was removed. […] The initial concentration of the antibody was 900 nM, and it was diluted three times serially, a total of 10 concentration points before leaving it on ice for 30 min, and removing the supernatant at 500 g for 5 min, and washing the cells with PBS once before adding goat anti-human Fc PE-labeled secondary antibody (Southern Biotech, J2815-5H87B) at 100 μl/well, and incubating in dark on ice for 30 min, removing the supernatant at 500 g for 5 min, and washing the cells with PBS once. 50 μl 1×PBS was used to resuspend cells and FACS was used for detection. GraphPad Prism software was used to analyze the experimental data and get FIG. 1 and FIG. 2.

[5] = target: T2, human CLDN18.2 on the cell surface; assay: flow cytometry (FACS) titration on NUGC-4 gastric cancer cells
[6] = target: T3, Human Claudin 18.2 (GenScrip, P50251802) (human, UniProt P56856-2 1-261, limits assumed); assay: SPR (Biacore T200), CLDN18.2 amine-coupled to chip, antibody as analyte, 1:1 model
T3 construct: Bought protein; also called human CLDN18.2
Protocol: After coupling, 1 M ethanolamine was injected to seal the remaining activation sites. The binding and dissociation between the chip surface antigen and the antibody in the mobile phase were detected by Biocore (GE Healthcare, T200) according to the manufacturer's instructions to obtain the affinity and kinetic constants. The serially diluted antibody (0-100 nM) flowed through the chip surface in order from low concentration to high concentration, with binding time of 180 s and dissociation time of 600 s. Finally, 10 mM Glycine pH 1.5 (GE Healthcare, BR-1003-54) was used to regenerate the chip. The resulting data were analyzed using the Biocore T200 analysis software and the dynamic analysis was conducted using the 1:1 combination model.

[7] = target: T4, human CLDN18.1 on the cell surface (human, UniProt P56856 1-261); assay: flow cytometry (FACS) titration on CHO-hCLDN18.1 cells, PE anti-human Fc secondary antibody
T4 construct: whole, on cells; also called CHO-hCLDN18.1
Protocol: as §1

EC50 [1]: 3.42 nM
B1: anti-CD3 monoclonal antibody HzSP34.87 (antibody, human IgG1, lambda, L234A L235A, V domains shown)
VH: EVQLVESGGGLVQPGGSLKLSCAASGFTFNTYAMNWVRQASGKGLEWVGRIRSKYNNYATYYADSVKDRFTISRDDSKSTLYLQMNSLKTEDTAVYYCARHYNFGQSYVSWFAYWGQGTTVTVSS
VL: QAVVTQEPSLTVSPGGTVTLTCRSSTGAVTTSNYANWVQQKPGQAPRGLIGGTNKRAPGVPARFSGSLLGDKAALTLLGAQPEDEAEYYCALWYSNLWVFGQGTKLTVLG

EC50 [1]: 3 nM
B2: anti-CD3 monoclonal antibody HzSP34.97 (antibody, human IgG1, lambda, L234A L235A, V domains shown)
VH: EVQLVESGGGLVQPGGSLKLSCAASGFTFNTYAMNWVRQASGKGLEWVGRIRSKAGGYATYYADSVKDRFTISRDDSKSTLYLQMNSLKTEDTAVYYCARHGNFGQSYVSWFAYWGQGTTVTVSS
VL: QAVVTQEPSLTVSPGGTVTLTCRSSTGAVTTSNYANWVQQKPGQAPRGLIGGTNKRAPGVPARFSGSLLGDKAALTLLGAQPEDEAEYYCALWYSNLWVFGQGTKLTVLG

B3: bispecific antibody 030 (CLDN18.2 x CD3) (bispecific antibody, human IgG1, kappa, lambda, L234A L235A)
heavy 1: not shown
light 1: not shown
heavy 2: not shown
light 2: QAVVTQEPSLTVSPGGTVTLTCRSSTGAVTTSNYANWVQQKPGQAPRGLIGGTNKRAPGVPARFSGSLLGDKAALTLLGAQPEDEAEYYCALWYSNLWVFGQGTKLTVLGQPKAAPSVTLFPPSSEELQANKATLVCLISDFYPGAVTVAWKADSSPVKAGVETTTPSKQSNNKYAASSYLSLTPEQWKSHRSYSCQVTHEGSTVEKTVAPTECS
EC50 of PBMC-mediated killing of gastric cancer cell NUGC-4 [2]: < 0.001 nM | EC50 of PBMC-mediated killing of pancreatic cancer cell DAN-G-hCLDN18.2 [2]: < 0.1 pM

B4: bispecific antibody 032 (CLDN18.2 x CD3) (bispecific antibody, human IgG1, kappa, lambda, L234A L235A)
heavy 1: not shown
light 1: not shown
heavy 2: not shown
light 2: QAVVTQEPSLTVSPGGTVTLTCRSSTGAVTTSNYANWVQQKPGQAPRGLIGGTNKRAPGVPARFSGSLLGDKAALTLLGAQPEDEAEYYCALWYSNLWVFGQGTKLTVLGQPKAAPSVTLFPPSSEELQANKATLVCLISDFYPGAVTVAWKADSSPVKAGVETTTPSKQSNNKYAASSYLSLTPEQWKSHRSYSCQVTHEGSTVEKTVAPTECS
EC50 of PBMC-mediated killing of gastric cancer cell NUGC-4 [2]: < 0.001 nM | EC50 of PBMC-mediated killing of pancreatic cancer cell DAN-G-hCLDN18.2 [2]: < 0.1 pM

B5: bispecific antibody 033 (CLDN18.2 x CD3) (bispecific antibody, human IgG1, kappa, lambda, L234A L235A)
heavy 1: not shown
light 1: not shown
heavy 2: not shown
light 2: QAVVTQEPSLTVSPGGTVTLTCRSSTGAVTTSNYANWVQQKPGQAPRGLIGGTNKRAPGVPARFSGSLLGDKAALTLLGAQPEDEAEYYCALWYSNLWVFGQGTKLTVLGQPKAAPSVTLFPPSSEELQANKATLVCLISDFYPGAVTVAWKADSSPVKAGVETTTPSKQSNNKYAASSYLSLTPEQWKSHRSYSCQVTHEGSTVEKTVAPTECS
killing activity on NUGC-4 and DAN-G-hCLDN18.2 relative to 030 and 032 [2]: ~1000 times lower than 030 and 032

EC50 (read off the curve) [3]: ~2 nM | EC50 [4]: 3.31 nM | EC50 (read off the curve) [5]: ~3 nM
B6: control antibody zolbetuximab (antibody, human IgG1, kappa, V domains shown)
VH: QVQLQQPGAELVRPGASVKLSCKASGYTFTSYWINWVKQRPGQGLEWIGNIYPSDSYTNYNQKFKDKATLTVDKSSSTAYMQLSSPTSEDSAVYYCTRSWRGNSFDYWGQGTTLTVSS
VL: DIVMTQSPSSLTVTAGEKVTMSCKSSQSLLNSGNQKNYLTWYQQKPGQPPKLLIYWASTRESGVPDRFTGSGSGTDFTLTISSVQAEDLAVYYCQNDYSYPFTFGSGTKLEIKR
notes: also called Zmab; positive control antibody Zmab

Kd [6]: 0.72 nM | koff [6]: 0.000306 s⁻¹ | kon [6]: 425000 M⁻¹ s⁻¹ | EC50 [4]: 5.51 nM | EC50 (read off the curve) [5]: ~1 nM | binding result [7]: no binding
B7: anti-CLDN18.2 monoclonal antibody HB37A6 (antibody, human IgG1, kappa, V domains shown)
VH: EVQLLDSGGGLVQPGGSLRLSCAASGFTFSSYVMSWVRQAPGKGLNWVSTISHSGGSTYYADSVKGRFTISRDNSKNTLYLQMNSLRAEDTAVYYCAIDAPYYDILTGYRYWGQGTLVTVSS
VL: not shown
notes: also called whole human antibody HB37A6
